Drawing on patent US20240309060A1, “POLYPEPTIDE BAX/NPM INHIBITORS” (TRUSTEES OF BOSTON UNIVERSITY, priority 2023, published 2024), this text covers Kd, koff and kon for two molecules.

Assay [1] addresses human nucleophosmin 1 (NPM1) (human), P06748. Kind of assay: SPR on human NPM1, KD calculated as koff/kon.
For assay [2] the target is unchanged. As to the kind of experiment: SPR on human NPM1, mean of at least three peptide concentrations below saturation.

Square brackets hold non-standard residues; d marks the D form. βAla = NCCC(=O)O

Chain of human nucleophosmin 1 (NPM1) (human), P06748 (P06748 whole entry): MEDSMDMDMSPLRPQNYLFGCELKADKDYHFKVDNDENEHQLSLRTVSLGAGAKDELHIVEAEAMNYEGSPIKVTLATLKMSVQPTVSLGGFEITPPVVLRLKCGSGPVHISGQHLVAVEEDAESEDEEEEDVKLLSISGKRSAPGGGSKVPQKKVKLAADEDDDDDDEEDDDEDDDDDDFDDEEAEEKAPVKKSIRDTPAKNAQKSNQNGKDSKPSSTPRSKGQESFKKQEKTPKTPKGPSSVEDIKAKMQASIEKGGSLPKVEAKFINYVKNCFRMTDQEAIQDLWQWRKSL

B1: NPMB1-I-011 (peptide)
peptide: Ac-RREEERREEERREEEK[βAla]TVTIFVAGVLTASLTIWKKMG-OH
SMILES: CC[C@H](C)[C@H](NC(=O)[C@@H](NC(=O)[C@H](CC(C)C)NC(=O)[C@H](CO)NC(=O)[C@H](C)NC(=O)[C@@H](NC(=O)[C@H](CC(C)C)NC(=O)[C@@H](NC(=O)CNC(=O)[C@H](C)NC(=O)[C@@H](NC(=O)[C@H](Cc1ccccc1)NC(=O)[C@@H](NC(=O)[C@@H](NC(=O)[C@@H](NC(=O)[C@@H](NC(=O)CCNC(=O)[C@H](CCCCN)NC(=O)[C@H](CCC(=O)O)NC(=O)[C@H](CCC(=O)O)NC(=O)[C@H](CCC(=O)O)NC(=O)[C@H](CCCNC(=N)N)NC(=O)[C@H](CCCNC(=N)N)NC(=O)[C@H](CCC(=O)O)NC(=O)[C@H](CCC(=O)O)NC(=O)[C@H](CCC(=O)O)NC(=O)[C@H](CCCNC(=N)N)NC(=O)[C@H](CCCNC(=N)N)NC(=O)[C@H](CCC(=O)O)NC(=O)[C@H](CCC(=O)O)NC(=O)[C@H](CCC(=O)O)NC(=O)[C@H](CCCNC(=N)N)NC(=O)[C@H](CCCNC(=N)N)NC(C)=O)[C@@H](C)O)C(C)C)[C@@H](C)O)[C@@H](C)CC)C(C)C)C(C)C)[C@@H](C)O)[C@@H](C)O)C(=O)N[C@@H](Cc1c[nH]c2ccccc12)C(=O)N[C@@H](CCCCN)C(=O)N[C@@H](CCCCN)C(=O)N[C@@H](CCSC)C(=O)NCC(=O)O
As for B1, the Kd (as a rule, the concentration at which binding is half-saturated) in assay [1] was 337 nM. Further, in assay [2], the koff (as a rule, the rate constant with which the complex falls apart) is 0.0299 s⁻¹ and the kon (in general, the rate constant with which the complex forms) is 88500 M⁻¹ s⁻¹.

B2: NPMB1-I-010 (peptide)
peptide: Ac-KKRRRKKRRRKKRRRK[βAla]TVTIFVAGVLTASLTIWKKMG-OH
SMILES: CC[C@H](C)[C@H](NC(=O)[C@@H](NC(=O)[C@H](CC(C)C)NC(=O)[C@H](CO)NC(=O)[C@H](C)NC(=O)[C@@H](NC(=O)[C@H](CC(C)C)NC(=O)[C@@H](NC(=O)CNC(=O)[C@H](C)NC(=O)[C@@H](NC(=O)[C@H](Cc1ccccc1)NC(=O)[C@@H](NC(=O)[C@@H](NC(=O)[C@@H](NC(=O)[C@@H](NC(=O)CCNC(=O)[C@H](CCCCN)NC(=O)[C@H](CCCNC(=N)N)NC(=O)[C@H](CCCNC(=N)N)NC(=O)[C@H](CCCNC(=N)N)NC(=O)[C@H](CCCCN)NC(=O)[C@H](CCCCN)NC(=O)[C@H](CCCNC(=N)N)NC(=O)[C@H](CCCNC(=N)N)NC(=O)[C@H](CCCNC(=N)N)NC(=O)[C@H](CCCCN)NC(=O)[C@H](CCCCN)NC(=O)[C@H](CCCNC(=N)N)NC(=O)[C@H](CCCNC(=N)N)NC(=O)[C@H](CCCNC(=N)N)NC(=O)[C@H](CCCCN)NC(=O)[C@H](CCCCN)NC(C)=O)[C@@H](C)O)C(C)C)[C@@H](C)O)[C@@H](C)CC)C(C)C)C(C)C)[C@@H](C)O)[C@@H](C)O)C(=O)N[C@@H](Cc1c[nH]c2ccccc12)C(=O)N[C@@H](CCCCN)C(=O)N[C@@H](CCCCN)C(=O)N[C@@H](CCSC)C(=O)NCC(=O)O
Consider B2, for which, in assay [1], the Kd is 842 nM. Also, in assay [2], the koff came to 0.0616 s⁻¹ and the kon was determined as 73200 M⁻¹ s⁻¹.
